The values below come from US8227193 (University of California, dated 2012).

The experiment concerns the target T1, human p52 DNA-binding domain (p52 DBD) (human, UniProt Q00653 1-340).
T1 construct: Expressed in E. coli from pET11a, without a poly-His tag; also called p52 RHD; NF-kB2/p52 Rel homology domain
T1 sequence: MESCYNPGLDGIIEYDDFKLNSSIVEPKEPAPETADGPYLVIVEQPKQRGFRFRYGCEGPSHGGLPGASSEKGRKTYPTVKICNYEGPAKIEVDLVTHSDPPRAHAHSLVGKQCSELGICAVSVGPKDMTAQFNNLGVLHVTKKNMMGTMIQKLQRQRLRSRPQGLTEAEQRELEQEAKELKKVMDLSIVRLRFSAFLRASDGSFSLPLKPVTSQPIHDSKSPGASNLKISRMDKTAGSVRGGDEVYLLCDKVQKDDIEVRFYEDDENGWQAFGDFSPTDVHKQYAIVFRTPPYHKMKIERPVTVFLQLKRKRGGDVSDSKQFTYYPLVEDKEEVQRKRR
In words: co-refolding from 7 M urea (1:1.2 molar ratio), Ni-affinity capture through the His tag of RelB DBD (uncomplexed p52 DBD flows through), size exclusion; both proteins confirmed by western blotting. As to the method:
His-RelB DBD and p52 DBD that had been purified as described above were mixed together in 1:1.2 molar ratio (i.e., with excess p52 DBD) and diluted to ~0.4 mg/ml concentration in a denaturing buffer B (7 M urea, 0.5 M NaCl, 20 mM Tris pH 7.5, 5 mM DTT, 10% glycerol). The denatured protein mixture (100 ml total volume that contained 40 mg total protein) was refolded by slowly removing urea by dialysis. The sample was subjected to dialysis against 2 L buffer C (buffer C was the same as buffer B except it lacked urea) for 6 hours. The dialysis step was repeated two more times. After dialysis, the refolded heterodimer was loaded onto the Ni-affinity column. Excess, uncomplexed p52 DBD flows through the column because it has no poly-His tag to bind Ni-affinity matrix. The heterodimer was eluted with imidazole. The eluate was concentrated and further purified using size exclusion chromatography (Superdex 200, Pharmacia). Fractions containing the heterodimer were pooled and concentrated. The presence of both proteins was confirmed by standard western blotting.
For orientation: In gel filtration, larger molecules generally elute earlier.

B1: poly histidine tagged murine RelB DNA-binding domain (His-RelB DBD) (other)
chain: MPSRRAARESAPELGALGSSDLSSLSLTVSRTTDELEIIDEYIKENGFGLVGTQLSEMPRLVPRGPASLSSVTLGPAAPPPPATPSWSCTLGRLVSPGPCPRPYLVITEQPKQRGMRFRYECEGRSAGSILGESSTEASKTQPAIELRDCGGLREVEVTACLVWKDWPHRVHPHSLVGKDCTDGVCRVRLRPHVSPRHSFNNLGIQCVRKKEIEAAIERKIQLGIDPYNAGSLKNHQEVDMNVVRICFQASYRDQQGHLHRMDPILSEPVYDKKSTNTSELRICRINKESGPCTGGEELYLLCDKVQKEDISVVFSTASWEGRADFSQADVHRQIAIVFKTPPYEDLEISEPVTVNVFLQRLTDGVCSEPLPFTYLPRDHDSYGVDKKRKRGLPDVLGEL
notes: Expressed in E. coli from pET15b as a poly histidine fusion protein; also called RelB RHD; RelB Rel homology domain; not shown: poly-histidine tag from vector pET15b (Novagen)
Take B1: the binding result is “binds”.
